Read-outs that look alike come from different tables or passages of the source.
Assays:
Experiment in all cases: cell-based or functional assay
[1] = target: HA of A/Wilson Smith N/33 (H1N1) (influenza A virus, UniProt P03454 18-565)
[2] = target: HA of A/Beijing/262/95 (H1N1) (influenza A virus)
[3] = target: HA of A/Solomon Island/3/2006 (H1N1) (influenza A virus)
[4] = target: HA of A/California/07/2009 (H1N1) (influenza A virus)
[5] = target: HA of A/Hong Kong/8/68 (H3N2) (influenza A virus)
[6] = target: HA of A/Victoria/3/75 (H3N2) (influenza A virus)
[7] = target: HA of A/Shan dong/9/93 (H3N2) (influenza A virus)
[8] = target: HA of ca A/Panama/2007/99 (H3N2) (influenza A virus)
[9] = target: HA of ca B/Beijing/243/97 (victoria) (influenza B virus)
[10] = target: HA of B/Hong Kong/330/2001 (victoria) (influenza B virus)
[11] = target: HA of B/Malaysia/2506/2004 (victoria) (influenza B virus)
[12] = target: HA of B/Ohio/1/2005 (victoria) (influenza B virus)
[13] = target: HA of B/Yamanashi/166/98 (yamagata) (influenza B virus)
[14] = target: HA of B/Sichuan/379/99 (yamagata) (influenza B virus)
[15] = target: HA of B/Florida/4/2006 (yamagata) (influenza B virus)
[16] = target: HA of B/Malaysia/2506/2004 (victoria) (influenza B virus); remark: listed apart in the source
[17] = target: HA of B/Sichuan/379/99 (yamagata) (influenza B virus); remark: listed apart in the source
HA of B/Lee/40 [18] = target: T1, HA of B/Lee/40 (influenza B virus, UniProt P03460 16-584)
T1 sequence (P03460 16-584 limits assumed): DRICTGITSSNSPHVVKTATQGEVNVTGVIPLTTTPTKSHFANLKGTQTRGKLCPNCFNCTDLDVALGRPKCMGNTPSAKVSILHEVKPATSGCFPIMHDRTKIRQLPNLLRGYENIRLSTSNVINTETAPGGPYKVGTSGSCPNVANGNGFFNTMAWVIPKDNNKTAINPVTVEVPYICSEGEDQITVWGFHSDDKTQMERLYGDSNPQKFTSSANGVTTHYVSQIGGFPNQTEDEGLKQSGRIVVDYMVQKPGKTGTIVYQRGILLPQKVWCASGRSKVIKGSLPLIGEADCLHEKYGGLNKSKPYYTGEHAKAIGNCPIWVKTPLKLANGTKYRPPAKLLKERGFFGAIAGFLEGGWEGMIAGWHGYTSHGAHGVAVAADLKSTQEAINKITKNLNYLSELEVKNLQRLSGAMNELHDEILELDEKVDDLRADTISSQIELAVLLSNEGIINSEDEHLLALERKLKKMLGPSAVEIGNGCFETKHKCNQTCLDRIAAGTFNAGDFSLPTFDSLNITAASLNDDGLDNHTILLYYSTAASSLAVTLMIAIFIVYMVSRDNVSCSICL

[19] = target: HA of ca B/Ann Arbor/1/66 (influenza B virus)
HA of B/Hong Kong/5/72 [20] = target: HA of B/Hong Kong/5/72 (influenza B virus)
[21] = target: HA of ca B/Beijing/243/97 (victoria) (influenza B virus); remark: listed apart in the source
[22] = target: HA of B/Hong Kong/330/2001 (victoria) (influenza B virus); remark: listed apart in the source
[23] = target: HA of B/Malaysia/2506/2004 (victoria) (influenza B virus); remark: listed apart in the source
[24] = target: HA of B/Ohio/1/2005 (victoria) (influenza B virus); remark: listed apart in the source
[25] = target: HA of ca B/Brisbane/60/2008 (victoria) (influenza B virus)
[26] = target: HA of B/Nevada/3/2011 (victoria) (influenza B virus)
[27] = target: HA of B/New Jersey/01/2012 (victoria) (influenza B virus)
[28] = target: HA of B/Texas/2/2013 (victoria) (influenza B virus)
[29] = target: HA of B/Wisconsin/5/2013 (victoria) (influenza B virus)
[30] = target: HA of B/Yamagata/16/88 (yamagata) (influenza B virus)
[31] = target: HA of ca B/Georgia/02/98 (yamagata) (influenza B virus)
[32] = target: HA of B/Sichuan/379/99 (yamagata) (influenza B virus); remark: listed apart in the source
[33] = target: HA of ca B/Victoria/504/2000 (yamagata) (influenza B virus)
[34] = target: HA of B/Florida/4/2006 (yamagata) (influenza B virus); remark: listed apart in the source
[35] = target: HA of B/Wisconsin/1/2010 (yamagata) (influenza B virus)
[36] = target: HA of B/Arizona/8/2013 (yamagata) (influenza B virus)
[37] = target: HA of B/Phuket/3073/2013 (yamagata) (influenza B virus)
HA of B/Lee/40 [38] = target: T1, HA of B/Lee/40; remark: listed apart in the source
[39] = target: HA of ca B/Ann Arbor/1/66 (influenza B virus); remark: listed apart in the source
HA of B/Hong Kong/5/72 [40] = target: HA of B/Hong Kong/5/72 (influenza B virus); remark: listed apart in the source
[41] = target: HA of ca B/Beijing/243/97 (victoria) (influenza B virus); remark: listed apart in the source
[42] = target: HA of B/Hong Kong/330/2001 (victoria) (influenza B virus); remark: listed apart in the source
[43] = target: HA of B/Malaysia/2506/2004 (victoria) (influenza B virus); remark: listed apart in the source
[44] = target: HA of B/Ohio/1/2005 (victoria) (influenza B virus); remark: listed apart in the source
[45] = target: HA of ca B/Brisbane/60/2008 (victoria) (influenza B virus); remark: listed apart in the source
[46] = target: HA of B/Yamagata/16/88 (yamagata) (influenza B virus); remark: listed apart in the source
[47] = target: HA of ca B/Ann Arbor/2/94 (yamagata) (influenza B virus)
[48] = target: HA of ca B/Georgia/02/98 (yamagata) (influenza B virus); remark: listed apart in the source
[49] = target: HA of B/Yamanashi/166/98 (yamagata) (influenza B virus); remark: listed apart in the source
[50] = target: HA of ca B/Johannesburg/5/99 (yamagata) (influenza B virus)
[51] = target: HA of B/Sichuan/379/99 (yamagata) (influenza B virus); remark: listed apart in the source
[52] = target: HA of ca B/Victoria/504/2000 (yamagata) (influenza B virus); remark: listed apart in the source
[53] = target: HA of B/Shanghai/361/02 (yamagata) (influenza B virus)
[54] = target: HA of B/Florida/4/2006 (yamagata) (influenza B virus); remark: listed apart in the source

HA of A/Wilson Smith N/33 (H1N1), sequence (P03454 18-565 limits assumed): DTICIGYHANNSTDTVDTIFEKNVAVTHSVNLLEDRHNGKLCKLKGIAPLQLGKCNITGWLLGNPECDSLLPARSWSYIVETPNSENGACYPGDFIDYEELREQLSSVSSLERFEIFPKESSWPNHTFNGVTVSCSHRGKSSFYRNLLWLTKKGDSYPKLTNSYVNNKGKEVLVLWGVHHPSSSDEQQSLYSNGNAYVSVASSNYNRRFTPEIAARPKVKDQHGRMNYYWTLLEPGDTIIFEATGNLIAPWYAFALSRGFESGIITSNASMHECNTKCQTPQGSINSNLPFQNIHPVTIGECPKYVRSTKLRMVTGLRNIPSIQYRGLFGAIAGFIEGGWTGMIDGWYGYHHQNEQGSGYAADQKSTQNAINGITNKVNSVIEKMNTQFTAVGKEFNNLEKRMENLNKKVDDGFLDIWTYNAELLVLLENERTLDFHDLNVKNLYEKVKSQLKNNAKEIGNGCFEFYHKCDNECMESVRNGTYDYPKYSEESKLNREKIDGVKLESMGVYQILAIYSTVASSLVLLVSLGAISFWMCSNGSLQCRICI

B1: FY1/39 BiS3 100/44 (bispecific antibody)
light: DIQMTQSPSSLSASVGDRVTITCRTSQSLSSYLHWYQQKPGKAPKLLIYAASSLQSGVPSRFSGSGSGTDFTLTISSLQPEDFATYYCQQSRTFGQGTKVEIKRTVAAPSVFIFPPSDEQLKSGTASVVCLLNNFYPREAKVQWKVDNALQSGNSQESVTEQDSKDSTYSLSSTLTLSKADYEKHKVYACEVTHQGLSSPVTKSFNRGEC
heavy: not shown
Neutralization (IC50) [1]: 10.6 nM | Neutralization (IC50) [2]: 20.2 nM | Neutralization (IC50) [3]: 2.5 nM | Neutralization (IC50) [4]: 9.9 nM | Neutralization (IC50) [5]: 5.8 nM | Neutralization (IC50) [6]: 45.2 nM | Neutralization (IC50) [7]: 7.8 nM | Neutralization (IC50) [8]: 149 nM | Neutralization (IC50) [9]: 21.5 nM | Neutralization (IC50) [10]: 112 nM | Neutralization (IC50) [11]: 43.7 nM | Neutralization (IC50) [12]: 8.1 nM | Neutralization (IC50) [13]: 0.7 nM | Neutralization (IC50) [14]: 12.3 nM | Neutralization (IC50) [15]: 5.9 nM

B2: FBC39 IgG (antibody, V domains shown)
VH: EVQLVVSGGGLVKPGGSLRLSCAASGLSFLNAWMSWVRQAPGKGLEWVGRIKSNTDGGTTDYAAPVKGRFSISRDDSKNMLFLHMSSLRTEDTAVYYCATDGPYSDDFRSGYAARYRYFGMDVWGQGTTVTVSS
VL: DIQMTQSPSSVSASVGDRVTITCRASQDISTWLAWYQQKPGKAPKLLIYAASSLQSGVPSRFSGSGSGTDFTLTISSLQPEDFATYFCQQANSFPPTFGQGTKLEIK
ADCC: NK cell killing of infected A549 cells (LDH release), IC50 [16]: 1.45 nM | ADCC: NK cell killing of infected A549 cells (LDH release), IC50 [17]: 0.85 nM | Neutralization (IC50) [1]: > 1000 nM | Neutralization (IC50) [2]: > 1000 nM | Neutralization (IC50) [4]: > 1000 nM | Neutralization (IC50) [5]: > 1000 nM | Neutralization (IC50) [6]: > 1000 nM | Neutralization (IC50) [7]: > 1000 nM | Neutralization (IC50) [8]: > 1000 nM | Neutralization (IC50) [9]: 0.4 nM | Neutralization (IC50) [10]: 1 nM | Neutralization (IC50) [11]: 1 nM | Neutralization (IC50) [12]: 0.6 nM | Neutralization (IC50) [14]: 0.2 nM | Neutralization (IC50) [15]: 0.4 nM | Neutralization (IC50) (HA of B/Lee/40 [18]): 0.1 nM | Neutralization (IC50) [19]: 0.6 nM | Neutralization (IC50) (HA of B/Hong Kong/5/72 [20]): 0.4 nM | Neutralization (IC50) [21]: 0.9 nM | Neutralization (IC50) [22]: 1.8 nM | Neutralization (IC50) [23]: 1.2 nM | Neutralization (IC50) [24]: 0.5 nM | Neutralization (IC50) [25]: 1.5 nM | Neutralization (IC50) [26]: 1.2 nM | Neutralization (IC50) [27]: 0.7 nM | Neutralization (IC50) [28]: 0.4 nM | Neutralization (IC50) [29]: 0.5 nM | Neutralization (IC50) [30]: 0.1 nM | Neutralization (IC50) [31]: 0.1 nM | Neutralization (IC50) [32]: 0.3 nM | Neutralization (IC50) [33]: 0.2 nM | Neutralization (IC50) [34]: 0.2 nM | Neutralization (IC50) [35]: 0.1 nM | Neutralization (IC50) [36]: 0.1 nM | Neutralization (IC50) [37]: 0.2 nM | Hemagglutination Inhibition Titer (HA of B/Lee/40 [38]): 5 nM | Hemagglutination Inhibition Titer [39]: 6 nM | Hemagglutination Inhibition Titer (HA of B/Hong Kong/5/72 [40]): 8 nM | Hemagglutination Inhibition Titer [41]: 14 nM | Hemagglutination Inhibition Titer [42]: 16 nM | Hemagglutination Inhibition Titer [43]: 20 nM | Hemagglutination Inhibition Titer [44]: 24 nM | Hemagglutination Inhibition Titer [45]: 20 nM | Hemagglutination Inhibition Titer [46]: 11 nM | Hemagglutination Inhibition Titer [47]: 6 nM | Hemagglutination Inhibition Titer [48]: 16 nM | Hemagglutination Inhibition Titer [49]: 13 nM | Hemagglutination Inhibition Titer [50]: 18 nM | Hemagglutination Inhibition Titer [51]: 10 nM | Hemagglutination Inhibition Titer [52]: 16 nM | Hemagglutination Inhibition Titer [53]: 16 nM | Hemagglutination Inhibition Titer [54]: 7 nM

From patent US20180155413A1 (AstraZeneca / MedImmune, published 2018)
